Data on one molecule can be found in patent publication US20240191211A1, “BIOLUMINESCENCE-TRIGGERED PHOTOCATALYTIC LABELING” (Promega Corporation, priority 2022, published 2024).

The target in this assay is LgBiT-HaloTag. The experiment in a line: luminescence saturation binding: VS-HiBiT titrated 200-0 nM against 0.2 nM fusion.
Chain of LgBiT-HaloTag (chain, as listed by the source limits assumed): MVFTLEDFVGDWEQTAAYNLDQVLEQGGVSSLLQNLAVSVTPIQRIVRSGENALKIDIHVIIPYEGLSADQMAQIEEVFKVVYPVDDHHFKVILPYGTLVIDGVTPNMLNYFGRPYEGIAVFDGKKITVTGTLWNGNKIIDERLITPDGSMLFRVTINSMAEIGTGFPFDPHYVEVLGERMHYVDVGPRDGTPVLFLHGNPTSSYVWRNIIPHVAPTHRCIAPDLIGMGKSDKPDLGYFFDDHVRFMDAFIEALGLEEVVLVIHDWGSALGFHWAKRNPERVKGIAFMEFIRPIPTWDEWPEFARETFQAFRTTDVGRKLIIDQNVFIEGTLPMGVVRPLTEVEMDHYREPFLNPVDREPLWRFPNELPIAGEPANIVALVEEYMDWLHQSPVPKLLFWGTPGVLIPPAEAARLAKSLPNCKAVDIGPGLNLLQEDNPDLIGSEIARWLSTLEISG

Turning to VSGWRLFKKIS (modifications not checked) [VS-HiBiT peptide], the fold complementation affinity (against the VS-HiBiT/HaloTag-LgBiT configuration) is 3 fold.
